Assay [1] addresses T1, IL6R90-G1m/lamL (Homo sapiens (Human), UniProt P0DOY2 1-106).
T1 construct: IgG antibody-like molecule lacking VL
Kind of assay: BLI (Octet HTX), hsIL-6R-BAP1 on streptavidin sensor, molecule as analyte, 30 C.

Another assay has as its target T2, human CD3ed-Fc (human).
T2 construct: Biotinylated in culture with BirA; The heterodimer fraction was purified; also called biotin-labeled protein containing human CD3 epsilon and human CD3 delta linked to a human antibody constant region; CD3 epsilon-delta heterodimer fused with the antibody constant region
T2 chain 1: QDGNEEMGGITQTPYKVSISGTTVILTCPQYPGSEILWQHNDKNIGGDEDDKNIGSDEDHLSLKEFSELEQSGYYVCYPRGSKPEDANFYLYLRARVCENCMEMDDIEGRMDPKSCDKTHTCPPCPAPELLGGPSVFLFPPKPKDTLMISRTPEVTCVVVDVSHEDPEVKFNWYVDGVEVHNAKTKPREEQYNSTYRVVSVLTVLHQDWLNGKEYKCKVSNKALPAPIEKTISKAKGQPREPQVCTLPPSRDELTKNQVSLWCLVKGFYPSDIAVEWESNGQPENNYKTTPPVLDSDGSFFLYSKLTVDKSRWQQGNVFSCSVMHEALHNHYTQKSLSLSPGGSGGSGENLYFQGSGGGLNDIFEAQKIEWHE
T2 chain 2: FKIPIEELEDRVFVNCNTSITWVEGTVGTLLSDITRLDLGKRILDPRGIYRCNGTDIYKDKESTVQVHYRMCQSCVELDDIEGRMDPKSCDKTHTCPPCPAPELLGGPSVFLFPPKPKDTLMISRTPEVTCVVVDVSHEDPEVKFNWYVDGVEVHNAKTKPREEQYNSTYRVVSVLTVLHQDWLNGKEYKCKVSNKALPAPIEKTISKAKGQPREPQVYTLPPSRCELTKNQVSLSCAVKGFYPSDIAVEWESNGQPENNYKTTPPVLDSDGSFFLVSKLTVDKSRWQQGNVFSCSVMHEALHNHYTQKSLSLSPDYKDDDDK
The assay is described as follows: phage display: panning on biotin-labeled human CD3ed-Fc and/or phage ELISA. (An ELISA detects its analyte on a solid surface through an enzyme-linked reagent.)

A further assay deals with T3, 20A11-G1m/VK2-28-k0MT.
T3 construct: IgG antibody-like molecule
T3 sequence (heavy, as listed by the source, chain 1 of 2): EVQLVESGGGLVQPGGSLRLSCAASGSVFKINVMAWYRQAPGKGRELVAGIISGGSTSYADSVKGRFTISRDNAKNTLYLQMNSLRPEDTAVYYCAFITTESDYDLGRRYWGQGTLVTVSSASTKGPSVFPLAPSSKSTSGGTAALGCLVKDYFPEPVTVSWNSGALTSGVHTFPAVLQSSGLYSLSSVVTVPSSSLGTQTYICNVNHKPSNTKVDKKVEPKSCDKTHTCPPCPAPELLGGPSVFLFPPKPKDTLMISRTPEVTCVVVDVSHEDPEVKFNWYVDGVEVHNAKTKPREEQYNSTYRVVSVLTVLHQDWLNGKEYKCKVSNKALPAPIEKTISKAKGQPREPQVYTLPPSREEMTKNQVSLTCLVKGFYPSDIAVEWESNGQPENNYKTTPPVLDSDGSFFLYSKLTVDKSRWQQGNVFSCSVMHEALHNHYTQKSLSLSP
T3 sequence (light, as listed by the source, chain 2 of 2): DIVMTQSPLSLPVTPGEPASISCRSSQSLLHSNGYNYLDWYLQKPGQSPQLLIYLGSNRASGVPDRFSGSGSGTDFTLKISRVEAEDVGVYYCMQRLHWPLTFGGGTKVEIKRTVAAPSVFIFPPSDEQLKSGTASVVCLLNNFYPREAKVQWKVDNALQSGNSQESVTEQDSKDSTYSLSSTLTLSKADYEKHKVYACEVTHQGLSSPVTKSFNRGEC
The assay is described as follows: BLI (Octet), in the same way as in Example 3. Background: In BLI a coated tip is dipped into the sample, and binding shifts an interference pattern.

The next assay concerns the target T4, 20A11hu-G1m/VK2-28-k0MT (Homo sapiens (Human), UniProt P0DOX5 2-447 = IgG part).
T4 construct: IgG antibody-like molecule
The assay is described as follows: BLI (Octet), in the same way as in Example 3, 30 C or 25 C.

The target of assay [2] is T1, IL6R90-G1m/lamL. The assay is described as follows: BLI (Octet HTX), molecule captured on Protein A biosensor, hsIL-6R as analyte, 30 C. The method, then: (§1) The hsIL-6R binding evaluation of each molecule was conducted using Octet HTX (Pall ForteBio Corp.). Specifically, each molecule was bound to Biosensor/Protein A (ProA) (Pall ForteBio Corp., 18-5013), and hsIL-6R was allowed to act thereon, followed by binding evaluation at 30° C.

The next assay concerns the target T5, IL6R90-G1m/VK2-28-k0MT.
T5 construct: IgG antibody-like molecule
Described as above. The protocol:
as §1

T4 sequence (P0DOX5 other isoform, or with tags, fused parts or gaps, chain 1 of 2): as the sequence (heavy, as listed by the source, chain 1 of 2) above, with Y37V, R45L, L47W counted along it
T4 sequence (light, as listed by the source, chain 2 of 2): as the sequence (light, as listed by the source, chain 2 of 2) above
T5 sequence (light, as listed by the source, chain 2 of 2, other chains not shown): as the sequence (light, as listed by the source, chain 2 of 2) above
Method for human CD3ed-Fc: Next, BSA was added to the phage library solution so as to attain a final BSA concentration of 4%. […] The magnetic beads used were NeutrAvidin coated beads (FG beads NeutrAvidin) or Streptavidin coated beads (Dynabeads MyOne Streptavidin T1).
Specifically, 100 pmol of the biotin-labeled antigen was added to the prepared phage library solution, and the phage library solution was contacted with the antigen at room temperature for 60 minutes. The magnetic beads blocked with BSA were added thereto, and the complexes of the antigen and the phages were bound to the magnetic beads at room temperature for 15 minutes. The beads were washed twice with 0.5 mL of TBST (TBS containing 0.1% Tween 20; TBS was manufactured by Takara Bio Inc.) and then further washed once with 0.5 mL of TBS. Then, 0.5 mL of 1 mg/mL trypsin was added thereto, and the beads were suspended at room temperature for 15 minutes and immediately thereafter, separated using a magnetic stand to recover a phage solution. The recovered phage solution was added to 20 mL of an E. coli line ER2738 in an exponential stage of growth (OD600: 0.4-0.5). The E. coli was cultured with mild stirring at 37° C. for 1 hour and thereby infected by the phages. […] Next, the phages were recovered from the culture solution of the inoculated E. coli to prepare a phage library solution. This cycle, called panning, was repeated twice. In the second cycle of panning, the beads were washed three times with TBST and subsequently twice with TBS. Also, 4 nmol of human Fc was added in the case of the panning against the human CD3ed-Fc.

B1: hsIL-6R-BAP1 (receptor)
chain: LAPRRCPAQEVARGVLTSLPGDSVTLTCPGVEPEDNATVHWVLRKPAAGSHPSRWAGMGRRLLLRSVQLHDSGNYSCYRAGRPAGTVHLLVDVPPEEPQLSCFRKSPLSNVVCEWGPRSTPSLTTKAVLLVRKFQNSPAEDFQEPCQYSQESQKFSCQLAVPEGDSSFYIVSMCVASSVGSKFSKTQTFQGCGILQPDPPANITVTAVARNPRWLSVTWQDPHSWNSSFYRLRFELRYRAERSKTFTTWMVKDLQHHCVIHDAWSGLRHVVQLRAQEEFGQGEWSEWSPEAMGTPWTESRSPPAENEVSTPMQALTTNKDDDNILFRDSANATSLPVQGGGGSGLNDIFEAQKIEWHE
modifications: biotin on the C-terminal AviTag sequence (BirA)
notes: also called hsIL-6R-Avitag; biotinylated soluble human IL6R
Regarding B1, the binding result with IL6R90-G1m/lamL [1] is listed as “binds”.

B2: bC3edL1R1N161H01 (VHH)
VHH: QVQLVESGGGLVQPGGSLRLSCAASGFPFDNYVMSWVRQAPGKGLEWISAISWNGGSTYYAESMKGRFTISRDNAKSTLYLQMNSLKSEDTAVYYCAKEPRVYYSGSPDYWGQGTQVTVSG
With B2, the binding result in the assay with human CD3ed-Fc is given as “binds”.

B3: bC3edL1R1N164H01 (VHH)
VHH: QVQLVESGGGLVQPGGSLRLSCAASGFTFDVYGMSWVRHSPGKGLEWVSTINWNGGSTYYAESMKGRFTISRDNAKNTVYLQMNSLKPEDTAVYYCAKFAPWDGDMEWGQGTQVTVSG
Turning to B3, the binding result in the assay with human CD3ed-Fc is recorded as “binds”.

B4: bC3edL1R1N160H01 (VHH)
VHH: QVQLVESGGGLVQPGGSLRLSCAASGFTFNHCWMYWVRQAPGKGLEWVSVINTDGGSAYYADSVKGRFTISRDNAKNTLYLQMNSLKSEDTAVYYCARDWAPLVDYYYGMDYWGKGTLVTVSG
Take B4: in the assay with human CD3ed-Fc, the binding result is “binds”.

B5: soluble human IL-6R (receptor)
chain: LAPRRCPAQEVARGVLTSLPGDSVTLTCPGVEPEDNATVHWVLRKPAAGSHPSRWAGMGRRLLLRSVQLHDSGNYSCYRAGRPAGTVHLLVDVPPEEPQLSCFRKSPLSNVVCEWGPRSTPSLTTKAVLLVRKFQNSPAEDFQEPCQYSQESQKFSCQLAVPEGDSSFYIVSMCVASSVGSKFSKTQTFQGCGILQPDPPANITVTAVARNPRWLSVTWQDPHSWNSSFYRLRFELRYRAERSKTFTTWMVKDLQHHCVIHDAWSGLRHVVQLRAQEEFGQGEWSEWSPEAMGTPWTESRSPPAENEVSTPMQALTTNKDDDNILFRDSANATSLPVQ
notes: Expressed in CHO cells and purified from the supernatant; also called hsIL-6R; recombinant human IL6R
Take B5: the binding result in the assay with 20A11-G1m/VK2-28-k0MT is listed as “binds”; with 20A11hu-G1m/VK2-28-k0MT, “no binding”; with IL6R90-G1m/lamL [2], “binds”; in the assay with IL6R90-G1m/VK2-28-k0MT, “no binding”.
